# From patent US12269859B2, “Synthetic immune receptors and methods of use thereof” (Angeles Therapeutics, Inc., priority 2016, dated 2025)
# B1: 051816-Z01 (protein)
# chain: MALPVTALLLPLALLLHAARPDVQMIQTPSSLSASLGDRVTISCRASQDIGNYLNWYQQKPDGTVKLLIYYTSRLHSGVPSRFSGSGSGTEYSLTISNLEQEDIATYFCQQGSALPPTFGGGTKLEINLEGKPIPNPLLGLDSTGSGEDLKNVFPPEVAVFEPSKAEIAHTQKATLVCLATGFYPDHVELSWWVNGKEVHSGVCTDPQPLKEQPALNDSRYCLSSRLRVSATFWQNPRNHFRCQVQFYGLSENDEWTQDRAKPVTQIVSAEAWGRADCGITSASYHQGVLSATILYEILLGKATLYAVLVSALVLMAMVKRKDSRGRAKRSGSGATNFSLLKQAGDVEENPGPTSMDWIWRILFLVGAATGAHSFEALQLQQSGAELVRPGASVTLSCKASGYTFTDYEMHWVKQTPVHGLEWIGAIDPETGGTAYNQKFEGKAILTADKSSSTAYMELRSLTSEDSPVYYCARRRYYGSSSFDYWGQGTTLTVSSTREQKLISEEDGSGIQNPDPAVYQLRDSKSSDKSVCLFTDFDSQTNVSQSKDSDVYITDKCVLDMRSMDFKSNSAVAWSNKSDFACANAFNNSIIPEDTFFPSSDVPCDVKLVEKSFETDTNLNFQNLSVIGFRILLLKVAGFNLLMTLRLWSSRAKRSGSGVKQTLNFDLLKLAGDVESNPGPSRGHMTEYKPTVRLATRDDVPRAVRTLAAAFADYPATRHTVDPDRHIERVTELQELFLTRVGLDIGKVWVADDGAAVAVWTTPESVEAGAVFAEIGPRMAELSGSRLAAQQQMEGLLAPHRPKEPAWFLATVGVSPDHQGKGLGSAVVLPGVEAAERAGVPAFLETSAPRNLPFYERLGFTVTADVEVPEGPRTWCMTRKPGA
# modifications: Synthetic Immune Receptor (SIR)
# B2: 012617-M05 (protein)
# chain: MALPVTALLLPLALLLHAARPLEGKPIPNPLLGLDSTGSGEDLKNVFPPEVAVFEPSKAEIAHTQKATLVCLATGFYPDHVELSWWVNGKEVHSGVCTDPQPLKEQPALNDSRYCLSSRLRVSATFWQNPRNHFRCQVQFYGLSENDEWTQDRAKPVTQIVSAEAWGRADCGITSASYHQGVLSATILYEILLGKATLYAVLVSALVLMAMVKRKDSRGRAKRSGSGATNFSLLKQAGDVEENPGPTSMALPVTALLLPLALLLHAARPQSVLTQPASVSGSPGQSITISCTGTSSDVGGYNYVSWYQQHPGKAPKLMIYDVNNRPSEVSNRFSGSKSGNTASLTISGLQAEDEADYYCSSYTTGSRAVFGGGTKLTVLGGGGGSGGGGSGGGGSEVQLVQSGAEVKKPGESLTISCKASGYSFPNYWITWVRQMSGGGLEWMGRIDPGDSYTTYNPSFQGHVTISIDKSTNTAYLHWNSLKASDTAMYYCARYYVSLVDIWGQGTLVTVSSTREQKLISEEDGSGIQNPDPAVYQLRDSKSSDKSVCLFTDFDSQTNVSQSKDSDVYITDKCVLDMRSMDFKSNSAVAWSNKSDFACANAFNNSIIPEDTFFPSSDVPCDVKLVEKSFETDTNLNFQNLSVIGFRILLLKVAGFNLLMTLRLWSSRAKRSGSGVKQTLNFDLLKLAGDVESNPGPSRGHMTEYKPTVRLATRDDVPRAVRTLAAAFADYPATRHTVDPDRHIERVTELQELFLTRVGLDIGKVWVADDGAAVAVWTTPESVEAGAVFAEIGPRMAELSGSRLAAQQQMEGLLAPHRPKEPAWFLATVGVSPDHQGKGLGSAVVLPGVEAAERAGVPAFLETSAPRNLPFYERLGFTVTADVEVPEGPRTWCMTRKPGA
# B3: 021317-E02 (protein)
# chain: MALPVTALLLPLALLLHAARPLEGKPIPNPLLGLDSTGSGEDLKNVFPPEVAVFEPSKAEIAHTQKATLVCLATGFYPDHVELSWWVNGKEVHSGVCTDPQPLKEQPALNDSRYCLSSRLRVSATFWQNPRNHFRCQVQFYGLSENDEWTQDRAKPVTQIVSAEAWGRADCGITSASYHQGVLSATILYEILLGKATLYAVLVSALVLMAMVKRKDSRGRAKRSGSGATNFSLLKQAGDVEENPGPTSMALPVTALLLPLALLLHAARPQSVLTQPPSVSGAPGQRVTISCTGSSSNIGAGYDVHWYQQLPGTAPKLLIFGNSNRPSGVPDRFSGFKSGTSASLAITGLQAEDEADYFCQSYDSSLSGSGVFGTGTKVTVLGGGGGSGGGGSGGGGSQMQLVQSGGGLVQPGRSLRLSCAASGFTFDDYAMHWVRQAPGKGLEWVSGISWNSGSIGYADSVKGRFTISRDNAKNSLYLQMNSLRAEDTALYYCAKDIHSGSYYGLLYYAMDVWGQGTTVTVSSTREQKLISEEDGSGIQNPDPAVYQLRDSKSSDKSVCLFTDFDSQTNVSQSKDSDVYITDKCVLDMRSMDFKSNSAVAWSNKSDFACANAFNNSIIPEDTFFPSSDVPCDVKLVEKSFETDTNLNFQNLSVIGFRILLLKVAGFNLLMTLRLWSSRAKRSGSGVKQTLNFDLLKLAGDVESNPGPSRGHMTEYKPTVRLATRDDVPRAVRTLAAAFADYPATRHTVDPDRHIERVTELQELFLTRVGLDIGKVWVADDGAAVAVWTTPESVEAGAVFAEIGPRMAELSGSRLAAQQQMEGLLAPHRPKEPAWFLATVGVSPDHQGKGLGSAVVLPGVEAAERAGVPAFLETSAPRNLPFYERLGFTVTADVEVPEGPRTWCMTRKPGA
# B4: 012417-H04 (protein)
# chain: MALPVTALLLPLALLLHAARPLEGKPIPNPLLGLDSTGSGEDLKNVFPPEVAVFEPSKAEIAHTQKATLVCLATGFYPDHVELSWWVNGKEVHSGVCTDPQPLKEQPALNDSRYCLSSRLRVSATFWQNPRNHFRCQVQFYGLSENDEWTQDRAKPVTQIVSAEAWGRADCGITSASYHQGVLSATILYEILLGKATLYAVLVSALVLMAMVKRKDSRGRAKRSGSGATNFSLLKQAGDVEENPGPTSMALPVTALLLPLALLLHAARPDIVMTQSPATLSLSPGERATLSCRSSKSLQNVNGNTYLYWFQQKPGQSPQLLIYRMSNLNSGVPDRFSGSGSGTEFTLTISSLEPEDFAVYYCMQHLEYPITFGAGTKLEIKGGGGSGGGGSGGGGSEVQLVESGGGLVKPGGSLKLSCAASGYTFTSYVMHWVRQAPGKGLEWIGYINPYNDGTKYNEKFQGRVTISSDKSISTAYMELSSLRSEDTAMYYCARGTYYYGTRVFDYWGQGTLVTVSSTREQKLISEEDGSGIQNPDPAVYQLRDSKSSDKSVCLFTDFDSQTNVSQSKDSDVYITDKCVLDMRSMDFKSNSAVAWSNKSDFACANAFNNSIIPEDTFFPSSDVPCDVKLVEKSFETDTNLNFQNLSVIGFRILLLKVAGFNLLMTLRLWSSRAKRSGSGVKQTLNFDLLKLAGDVESNPGPSRGHMTEYKPTVRLATRDDVPRAVRTLAAAFADYPATRHTVDPDRHIERVTELQELFLTRVGLDIGKVWVADDGAAVAVWTTPESVEAGAVFAEIGPRMAELSGSRLAAQQQMEGLLAPHRPKEPAWFLATVGVSPDHQGKGLGSAVVLPGVEAAERAGVPAFLETSAPRNLPFYERLGFTVTADVEVPEGPRTWCMTRKPGA
# System: target antigen-expressing cell line
# Test: Jurkat NFAT-GFP assay, coculture with target cell lines expressing the respective target antigen (summary Table 10A)
# Format: cell-based, human
# Parameters: key: The signs +/−, +, 2+ etc. after the name of the cell lines indicate the relative degree of positivity on the Jurkat-NFAT-GFP assay as measured by the % GFP positive cells; +: relative degree of positivity on the Jurkat-NFAT-GFP assay as measured by the % GFP positive cells; 2+: relative degree of positivity on the Jurkat-NFAT-GFP assay as measured by the % GFP positive cells
# Details: relative % GFP positive cells; for NFAT-GFP ASSAY Positive Cell lines: HepG2: SIR-expressing Jurkat-NFAT-GFP cells cocultured with HepG2
# Protocol: (B) Induction of NFAT promoter driven GFP expression. The control vector- and SIR-expressing Jurkat-NFAT-GFP cocultured for 4-24 hours with the target antigen-expressing cell line (described above) and their ability to bind to the target antigen is assayed by measuring induction of GFP expression using Flow Cytometry. Cellular supernatant is collected and assayed for the induction of cytokines (e.g., IL2).
# Jurkat NFAT-GFP Assay For Synthetic Immune Receptors. The Jurkat-NFAT-GFP cells are engineered in such a way that the IL-2 promoter, which carries NFAT binding sites, is cloned upstream of the GFP gene. These cells have been used to study signaling via TCR and CAR. The different SIRs were stably expressed in Jurkat NFAT-GFP cells by lentiviral mediated gene transfer, followed by selection with puromycin. The SIR-expressing Jurkat-NFAT-GFP cells were cocultured with the target cells at E:T ratio of approximately 1:2 for approximately 4 hours to 18 hours. When the interaction between SIRs and their target antigen results in activation of the NFAT pathway, GFP expression is induced.
# Induction of GFP expression by coculturing of Jurkat-NFAT-GFP cells expressing different SIR constructs and the different target cells was studied essentially as described previously (Wu, Roybal, Puchner, Onuffer, & Lim, 2015). GFP expression was monitored by FACS analysis. A few representative examples of this assay are shown in the FIG. 13A-B. In panel A, control Jurkat-NFAT-GFP cells or those expressing SIRs targeting CD19 (clone ID 051716-I08), MPL (Clone ID: 040716-A07) and BCMA (Clone ID: 011116-A07) were incubated with RAJI (top), HEL (middle) or U266 (bottom) cells, respectively. […] In panel B, Jurkat cells expressing SIR targeting CDH6 (Clone ID: 051716-J05), CD276 (Clone ID: 050516-Q06) and Her2/neu (Clone ID: 050516-I03) were incubated with SKOV3 (top) and […] (middle and bottom) cells, respectively. […] The Jurkat-NFAT-GFP cells were engineered to express different SIRs targeting other antigens and the experiment repeated upon coculture with the target cells expressing their respective target antigen. The Jurkat-NFAT-GFP (parental) cells were used as control. The names of different SIRs, their SEQ ID NOs, component antigen binding domains and TCR chains can be determined by reference to Tables 7A-7H. A SIR is considered positive in the assay in case the SIR expressing Jurkat-NFAT-GFP cells show greater % GFP positive cells when cultured with the target cell line as compared to parental Jurkat-NFAT-GFP cells. […] The signs +/−, +, 2+ etc. after the name of the cell lines indicate the relative degree of positivity on the Jurkat-NFAT-GFP assay as measured by the % GFP positive cells after culture of the SIR expressing Jurkat-NFAT-GFP cells with that cell line. […] In addition, great diversity of response against the same target cell line is observed with Jurkat cells expressing SIRs containing different antigen binding domains targeting the same antigen (e.g., SIRs having antigen binding domains derived form different CD19 antibodies) even when the SIRs share the same TCR chains and linkers. Finally, Jurkat cells expressing SIRs targeting different antigens (e.g. CD19 vs CD20) show a diversitiy of response when exposed to the same target cell line. Thus, a diverse immune response can be generated against a single target cell by combining SIRs with different TCR chains, linkers, antigen binding domains and target specificity. Table 10A also summarizes the results of GLuc based T cell cytotoxicity assay observed with different SIRs when exposed to their target cell lines. […]
molecule,measurement,setting,value
B1,NFAT-GFP ASSAY Positive Cell lines: LAN5,SIR-expressing Jurkat-NFAT-GFP cells cocultured with LAN5,LAN5 (2+)
B2,NFAT-GFP ASSAY Positive Cell lines: HepG2,,HepG2 (2+)
B3,NFAT-GFP ASSAY Positive Cell lines: HepG2,,HepG2 (+)
B4,NFAT-GFP ASSAY Positive Cell lines: NALM6,SIR-expressing Jurkat-NFAT-GFP cells cocultured with NALM6,(+)
same,NFAT-GFP ASSAY Positive Cell lines: RAJI,SIR-expressing Jurkat-NFAT-GFP cells cocultured with RAJI,"RAJI (2+), NALM6"
